# Experiments:
# [1] = tested on: β-lactamase activity of S. aureus SHY97-4320; assay: β-lactamase activity, nitrocefin assay, human LF; type: cell-based, Staphylococcus aureus
# Description: Penicillin G was purchased from Novopharm Limited (Toronto, Ontario, Canada). […] Antibiotic stock solutions were always freshly prepared and diluted to the desired concentration in Mueller Hinton broth (MHB) medium (Difco Laboratories, Detroit, MI). β-Lactamase activity was measured using a quantitative spectrophotometric assay with the chromogenic cephalosporin nitrocefin. Bacterial cells were first exposed to penicillin and/or LF during 4 and 22-h in broth. At each time point, the number of cfu/ml were determined and cells aliquots were centrifuged.
# The pellets were suspended in 10 mM HEPES buffer (pH 7.4) to an OD415 nm of 0.4 for PC-1 and 4 for strain SHY97-4320. Nitrocefin (100 μM) was added to 20 μl of cells in a final volume of 200 μl. Hydrolysis was measured at 486 nm on a Spectra Max 250 Microplate Spectrophotometer System of Molecular Device (Fisher Scientific, Ottawa, Canada). β-Lactamase activity was expressed as ΔO.D.486 nm/min and corrected for bacterial OD.
# [2] = tested on: β-lactamase activity of S. aureus PC-1; assay: β-lactamase activity, nitrocefin assay, human LF; type: cell-based; details: incubation for 4 h
# Sequence of β-lactamase activity of S. aureus PC-1 (P00807 25-281): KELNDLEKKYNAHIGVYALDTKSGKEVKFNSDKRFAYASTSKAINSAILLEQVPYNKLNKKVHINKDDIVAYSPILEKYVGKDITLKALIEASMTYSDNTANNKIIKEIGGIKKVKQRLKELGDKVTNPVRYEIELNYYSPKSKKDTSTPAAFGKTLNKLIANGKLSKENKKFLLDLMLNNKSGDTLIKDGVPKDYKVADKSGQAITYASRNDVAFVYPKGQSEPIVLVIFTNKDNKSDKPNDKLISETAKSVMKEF
# Sequence of β-lactamase activity of S. aureus SHY97-4320 (P00807 25-281): as above
molecule,measurement,setting,value
"human LF: Human LF (Sigma) (protein, UniProt P02788 20-710, looked up) Lactotransferrin: GRRRSVQWCAVSQPEATKCFQWQRNMRKVRGPPVSCIKRDSPIQCIQAIAENRADAVTLDGGFIYEAGLAPYKLRPVAAEVYGTERQPRTHYYAVAVVKKGGSFQLNELQGLKSCHTGLRRTAGWNVPIGTLRPFLNWTGPPEPIEAAVARFFSASCVPGADKGQFPNLCRLCAGTGENKCAFSSQEPYFSYSGAFKCLRDGAGDVAFIRESTVFEDLSDEAERDEYELLCPDNTRKPVDKFKDCHLARVPSHAVVARSVNGKEDAIWNLLRQAQEKFGKDKSPKFQLFGSPSGQKDLLFKDSAIGFSRVPPRIDSGLYLGSGYFTAIQNLRKSEEEVAARRARVVWCAVGEQELRKCNQWSGLSEGSVTCSSASTTEDCIALVLKGEADAMSLDGGYVYTAGKCGLVPVLAENYKSQQSSDPDPNCVDRPVEGYLAVAVVRRSDTSLTWNSVKGKKSCHTAVDRTAGWNIPMGLLFNQTGSCKFDEYFSQSCAPGSDPRSNLCALCIGDEQGENKCVPNSNERYYGYTGAFRCLAENAGDVAFVKDVTVLQNTDGNNNEAWAKDLKLADFALLCLDGKRKPVTEARSCHLAMAPNHAVVSRMDKVERLKQVLLHQQAKFGRNGSDCPDKFCLFQSETKNLLFNDNTECLARLHGKTTYEKYLGPQYVAGITNLKKCSTSPLLEACEFLRK",β-lactamase activity,"[1]; 1 mg/ml human LF added at the same time as 8 μg/ml penicillin G, P<0.001",an important reduction of the β-lactamase activity
same,β-lactamase activity,[1]; human LF 1 mg/ml alone,no β-lactamase activity
same,reduction of β-lactamase activity,[2],50%

# Reference: US20030134779A1, “Method and composition for treatment and/or prevention of antibiotic-resistant microorganism infections” (priority 2002, published 2003)
